Measurements as given in paper PMC12635394, “UBE2O-mediated ubiquitylation directs cytoplasmic CTNNA1 to promote cell-to-ECM adhesions” (EMBO Reports, 2025).

T1: Flag-UBE2O-TwinStrep (purified full-length human UBE2O, wild type) (human, UniProt Q9C0C9 1-1292)
T1 construct: UBE2O, human, full-length WT in N-terminal Flag-tagged and C-terminal TwinStrep-tagged pLV vector; also called Flag-UBE2O-TS; Flag-UBE2O-WT-TwinStrep; source: Expi293F, transfected, purified (Strep-Tactin XT, Superdex 200); not shown: Flag, N-terminal, kept; TwinStrep, C-terminal, kept
T1 sequence (looked up): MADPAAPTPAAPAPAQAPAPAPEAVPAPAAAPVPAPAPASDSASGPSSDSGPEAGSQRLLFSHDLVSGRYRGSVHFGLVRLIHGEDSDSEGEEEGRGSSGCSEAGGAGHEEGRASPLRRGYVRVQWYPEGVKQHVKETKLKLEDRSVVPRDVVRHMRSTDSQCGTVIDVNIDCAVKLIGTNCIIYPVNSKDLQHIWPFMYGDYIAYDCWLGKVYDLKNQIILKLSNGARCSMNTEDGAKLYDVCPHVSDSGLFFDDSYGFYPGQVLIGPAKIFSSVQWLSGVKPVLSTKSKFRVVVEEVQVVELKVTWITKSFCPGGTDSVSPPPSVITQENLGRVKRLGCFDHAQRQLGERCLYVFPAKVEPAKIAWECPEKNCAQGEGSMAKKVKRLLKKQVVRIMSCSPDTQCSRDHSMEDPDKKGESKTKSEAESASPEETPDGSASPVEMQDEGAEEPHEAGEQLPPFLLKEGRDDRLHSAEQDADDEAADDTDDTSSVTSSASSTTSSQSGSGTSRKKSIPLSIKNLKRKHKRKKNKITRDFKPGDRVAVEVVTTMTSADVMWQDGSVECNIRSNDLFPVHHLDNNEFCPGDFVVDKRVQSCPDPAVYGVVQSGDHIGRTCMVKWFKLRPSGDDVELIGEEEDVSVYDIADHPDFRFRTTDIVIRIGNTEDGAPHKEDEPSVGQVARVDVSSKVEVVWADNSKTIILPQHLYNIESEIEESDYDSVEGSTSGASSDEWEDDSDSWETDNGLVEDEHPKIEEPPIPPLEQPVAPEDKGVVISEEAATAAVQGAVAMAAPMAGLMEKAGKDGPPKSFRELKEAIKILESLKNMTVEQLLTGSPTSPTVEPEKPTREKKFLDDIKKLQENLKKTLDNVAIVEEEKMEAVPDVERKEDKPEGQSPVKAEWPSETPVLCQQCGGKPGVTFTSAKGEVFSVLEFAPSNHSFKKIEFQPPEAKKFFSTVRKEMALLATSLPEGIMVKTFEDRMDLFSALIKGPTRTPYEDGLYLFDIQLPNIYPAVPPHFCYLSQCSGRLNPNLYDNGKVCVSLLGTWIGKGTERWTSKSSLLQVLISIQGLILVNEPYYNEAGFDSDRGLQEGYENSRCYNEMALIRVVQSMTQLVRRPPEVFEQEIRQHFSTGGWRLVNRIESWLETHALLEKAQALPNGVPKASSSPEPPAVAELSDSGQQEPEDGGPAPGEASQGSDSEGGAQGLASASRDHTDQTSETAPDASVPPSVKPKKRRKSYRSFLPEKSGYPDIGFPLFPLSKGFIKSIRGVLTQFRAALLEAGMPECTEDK

B1: CTNNA1-Myc (purified mouse CTNNA1 with C-terminal Myc tag) (natural protein, UniProt P26231 1-906, looked up)
chain: MTAVHAGNINFKWDPKSLEIRTLAVERLLEPLVTQVTTLVNTNSKGPSNKKRGRSKKAHVLAASVEQATENFLEKGDKIAKESQFLKEELVVAVEDVRKQGDLMKSAAGEFADDPCSSVKRGNMVRAARALLSAVTRLLILADMADVYKLLVQLKVVEDGILKLRNAGNEQDLGIQYKALKPEVDKLNIMAAKRQQELKDVGNRDQMAAARGILQKNVPILYTASQACLQHPDVAAYKANRDLIYKQLQQAVTGISNAAQATASDDAAQHQGGSGGELAYALNNFDKQIIVDPLSFSEERFRPSLEERLESIISGAALMADSSCTRDDRRERIVAECNAVRQALQDLLSEYMGNAGRKERSDALNSAIDKMTKKTRDLRRQLRKAVMDHVSDSFLETNVPLLVLIEAAKNGNEKEVKEYAQVFREHANKLIEVANLACSISNNEEGVKLVRMSASQLEALCPQVINAALALAAKPQSKLAQENMDLFKEQWEKQVRVLTDAVDDITSIDDFLAVSENHILEDVNKCVIALQEKDVDGLDRTAGAIRGRAARVIHVVTSEMDNYEPGVYTEKVLEATKLLSNTVMPRFTEQVEAAVEALSSDPAQPMDENEFIDASRLVYDGIRDIRKAVLMIRTPEELDDSDFETEDFDVRSRTSVQTEDDQLIAGQSARAIMAQLPQEQKAKIAEQVASFQEEKSKLDAEVSKWDDSGNDIIVLAKQMCMIMMEMTDFTRGKGPLKNTSDVISAAKKIAEAGSRMDKLGRTIADHCPDSACKQDLLAYLQRIALYCHQLNICSKVKAEVQNLGGELVVSGVDSAMSLIQAAKNLMNAVVQTVKASYVASTKYQKSQGMASLNLPAVSWKMKAPEKKPLVKREKQDETQTKIKRASQKKHVNPVQALSEFKAMDSI
notes: αE-catenin (CTNNA1), mouse; full-length Ctnna1 in C-terminal Myc-tagged pGEX-6P-1; also called mCTNNA1-Myc; pGEX-6P-1-CTNNA1-Myc; source: E. coli BL21 (DE3), purified (glutathione resin, GST removed with PreScission protease); not shown: Myc, C-terminal, kept
B2: CTNNA1-V5 (purified mouse CTNNA1 with C-terminal V5 tag) (natural protein, UniProt P26231 1-906, looked up)
chain: B1 chain
notes: αE-catenin (CTNNA1), mouse; full-length Ctnna1 in C-terminal V5-tagged pGEX-6P-1; As the unmodified 'CTNNA1' bait it went through the ubiquitylation reaction without ATP before capture on V5-Trap; also called mCTNNA1-V5; CTNNA1 bait; source: E. coli BL21 (DE3), purified (glutathione resin, GST removed with PreScission protease); not shown: V5, C-terminal, kept

What was measured:
[1] = target: T1, Flag-UBE2O-TwinStrep (purified …); experiment: pull-down; 0.1 μM purified Flag-UBE2O-TS mixed with 0.1 μM purified CTNNA1-Myc in lysis buffer, captured on anti-c-Myc magnetic beads, 4 °C, 1.5 h, immunoblot; conditions: both partners purified
[2] = target: T1, Flag-UBE2O-TwinStrep (purified …); experiment: pull-down; 0.1 μM CTNNA1-V5 pre-incubated overnight at 4 °C with 0, 25 or 50 nM His-GST-β-catenin, captured on BSA-blocked V5-Trap beads, washed, then 0.1 μM Flag-UBE2O-TS for 1.5 h at 4 °C, immunoblot; conditions: both partners purified

Binder | binding result [1] | binding result [2]
B1 | binds | 
B2 |  | binds
